Paper PMC7619307, “The Golgi vesicle tether p115 can bind directly to the ER exit site organiser Sec16A” (Journal of cell science, 2026)

Biological target: T1, FLAG-tagged p115 head domain (1–655) (human, UniProt O60763 1-655)
T1 sequence (looked up): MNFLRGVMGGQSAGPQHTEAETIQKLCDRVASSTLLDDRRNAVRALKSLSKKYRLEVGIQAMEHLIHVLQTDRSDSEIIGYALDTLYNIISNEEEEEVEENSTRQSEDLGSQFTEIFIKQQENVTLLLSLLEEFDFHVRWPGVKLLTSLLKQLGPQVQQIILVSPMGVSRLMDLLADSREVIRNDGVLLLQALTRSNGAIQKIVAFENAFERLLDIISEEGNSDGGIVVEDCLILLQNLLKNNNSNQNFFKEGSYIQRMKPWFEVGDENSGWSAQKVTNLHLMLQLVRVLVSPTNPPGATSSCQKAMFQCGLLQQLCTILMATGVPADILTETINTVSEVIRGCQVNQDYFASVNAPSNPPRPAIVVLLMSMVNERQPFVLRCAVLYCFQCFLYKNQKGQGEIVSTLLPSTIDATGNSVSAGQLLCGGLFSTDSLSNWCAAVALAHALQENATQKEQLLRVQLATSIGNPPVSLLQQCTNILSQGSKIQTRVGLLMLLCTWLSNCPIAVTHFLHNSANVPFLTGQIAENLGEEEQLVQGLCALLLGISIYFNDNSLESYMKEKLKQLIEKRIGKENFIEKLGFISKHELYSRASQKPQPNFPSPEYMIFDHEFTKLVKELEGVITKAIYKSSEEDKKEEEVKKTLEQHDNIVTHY
Assay: pull-down; direct binding assay: FLAG-tagged protein eluted from anti-FLAG beads (1 M NaCl wash, 3×FLAG peptide) was incubated for 1 h at 4°C with GFP-tagged protein held on GFP-Trap beads after harsh washes (1% SDS; 1 M NaCl, 1% Triton X-100); washes with 300 mM NaCl; immunoblot
Details: both partners purified

B1: Sec16A (650–776)–GFP (domain or fragment, human, UniProt O15027 650-776, looked up)
chain: ALPDASPGNLEQPPDNMETLCAPQVCPLPLNSTTEAVHMLPHAGAPPLDTVYPAPEKRPSARTQGPVKCESPATTLWAQSELPDFGGNVLLAPAAPALYVCAKPQPPVVQPPEEAMSGQQSRNPSSA
notes: source: HEK293T, transfected, in lysate (co-precipitation); not shown: GFP, C-terminal, kept
Q: Does B1 bind?
A: binds
